We go through ten molecules from PMC4519192, “In vitro Selection and Interaction Studies of a DNA Aptamer Targeting Protein A”.

Series [1] has as its target T1, Protein A, native (Sigma P3838) (Staphylococcus aureus, UniProt P38507 37-477). As to the kind of experiment: MST; 25 C, in solution. The conditions noted are these: protein: native, label: 5'-fluorescein.
The target of series [2] is T2, Protein A, recombinant (Sigma P7837) (UniProt P38507 37-327). As to the kind of experiment: MST; 25 C, in solution. The conditions noted are these: protein: recombinant, label: 5'-fluorescein.
Series [3] has as its target T3, Protein A, native biotinylated (Sigma P2165) (Staphylococcus aureus, UniProt P38507 37-477). As to the kind of experiment: SPR; steady state; Protein A immobilized ~600 RU. The conditions noted are these: tags: biotin, label: 5'-fluorescein. A general note: In SPR one partner is held on a chip, and binding of the other changes the refractive index at the surface.
In series [4] the target is T3, Protein A, native biotinylated (Sigma …). Description: SPR; kinetic 1:1 fit; ka 1.23e3 M-1s-1, kd 1.66e-3 s-1. The conditions noted are these: tags: biotin, label: 5'-fluorescein.
The target is the same in series [5]. As to the kind of experiment: bead-based fluorescence binding; Protein A on streptavidin beads. The conditions noted are these: tags: biotin, label: 5'-fluorescein.
Series [6] has as its target human thrombin (89223 Fluka) (human, UniProt P00734;P00734 328-363;364-622). As to the kind of experiment: SPR.
The target of series [7] is Protein G, recombinant (Pierce 21193) (group G Streptococci, UniProt P06654 228-352). Description: SPR; 1000 nM protein. The following applies: label: 3'-biotin, predicted stem-loops, possible G4.
The target in series [8] is T2, Protein A, recombinant (Sigma P7837). As to the kind of experiment: SPR; single-cycle mode; aptamer 516 RU. The following applies: label: 3'-biotin.
Series [9] shares this target. Description: SPR; steady state; aptamer immobilized 1086 RU; avidity. The following applies: label: 3'-biotin.
The target in series [10] is T1, Protein A, native (Sigma P3838). As to the kind of experiment: SPR; steady state; aptamer immobilized 1158 RU; avidity. The following applies: label: 3'-biotin.
Series [11] addresses T2, Protein A, recombinant (Sigma P7837). As to the kind of experiment: SPR; steady state; aptamer immobilized 1030 RU. The following applies: label: 3'-biotin, predicted stem-loop.
Series [12] deals with T3, Protein A, native biotinylated (Sigma …). As to the kind of experiment: bead-based fluorescence binding. The conditions noted are these: tags: biotin, label: 5'-fluorescein.

Chain of Protein G, recombinant (Pierce 21193) (P06654 228-352): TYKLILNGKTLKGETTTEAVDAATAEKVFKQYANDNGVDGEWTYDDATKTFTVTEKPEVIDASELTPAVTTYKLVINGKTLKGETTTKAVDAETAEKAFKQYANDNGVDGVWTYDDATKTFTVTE

B1: PA#2/8 5'-fluorescein (structured_DNA)
DNA: ATACCAGCTTATTCAATTAGCAACATGAGGGGGATAGAGGGGGTGGGTTCTCTCGGCTACAATCGTAATCAGTTAG
For B1, the Kd was 668 ± 224 nM in series [1]; 927 ± 404 nM in series [2]; 2220 ± 180 nM in series [3]; 1350 nM in [4]; 1060 ± 200 nM in [5].

B2: PA#2/8 3'-biotin (structured_DNA)
DNA: ATACCAGCTTATTCAATTAGCAACATGAGGGGGATAGAGGGGGTGGGTTCTCTCGGCTACAATCGTAATCAGTTAG
As to B2, the binding result in series [6] and in [7] was “no binding” in each case. Moreover, the Kd amounted to 148 ± 7.6 nM in [8], 172 ± 14 nM in series [9] and 84 ± 5 nM in [10].

B3: PA#2/8[S1-58] 5'-fluorescein (structured_DNA)
DNA: ATACCAGCTTATTCAATTAGCAACATGAGGGGGATAGAGGGGGTGGGTTCTCTCGGCT
On to B3, for which the Kd in [1] (predicted stem-loop) was 222 ± 60.5 nM; in series [2] (predicted stem-loop), 94.7 ± 64.6 nM; in series [3] (predicted stem-loop) it was 1920 ± 250 nM.

B4: PA#2/8[S1-58] 3'-biotin (structured_DNA)
DNA: ATACCAGCTTATTCAATTAGCAACATGAGGGGGATAGAGGGGGTGGGTTCTCTCGGCT
Regarding B4, the Kd in series [11] is 287 ± 16.2 nM.

B5: PA#2/8[S1-43] (structured_DNA)
DNA: ATACCAGCTTATTCAATTAGCAACATGAGGGGGATAGAGGGGG
B5: the Kd in series [1] (predicted stem-loop) was 214 ± 46.1 nM; in series [2] (predicted stem-loop) it was 579 ± 123 nM.

B6: PA#2/8[S1-28] (structured_DNA)
DNA: ATACCAGCTTATTCAATTAGCAACATGA
Regarding B6, in series [12], the binding result was “no binding”.

B7: PA#2/8KR23 (structured_DNA)
DNA: GATAGAGGGGGTGGGTTCTCTCG
Regarding B7, in [12], the binding result is reported as “no binding”.

B8: PA#2/8[S19-76] (structured_DNA)
DNA: AGCAACATGAGGGGGATAGAGGGGGTGGGTTCTCTCGGCTACAATCGTAATCAGTTAG
As for B8, the binding result in [12] was “no binding”.

B9: PA#2/8[S1-35] (structured_DNA)
DNA: ATACCAGCTTATTCAATTAGCAACATGAGGGGGAT
On to B9, for which, in series [12], the binding result was “no binding”.

B10: PA#2/8KR40 (structured_DNA)
DNA: AGCAACATGAGGGGGATAGAGGGGGTGGGTTCTCTCGGCT
Consider B10, for which the binding result in [12] is recorded as “no binding”.
